The source of these data is patent publication US20190271704.

Data set [1] concerns the target T1, NE nanosensor with heptafluorobutylamine reporter (peptide-PFC conjugated to a 40 kDa 8-arm PEG scaffold).
T1 chain: CKKKXXXX

The target of data set [2] is T2, NE nanosensor with pentafluoropropylamine reporter (peptide-PFC conjugated to a 40 kDa 8-arm PEG scaffold).
T2 chain: CKKKXXXX

The target of data set [3] is T3, NE peptide substrate with acetylated N-terminal CKKK-PEG4 linker and C-terminal heptafluorobutylamine reporter (peptide-PFC) (not fully specified).
T3 chain: CKKKXXXX

Data set [4] deals with T4, NE peptide substrate with acetylated N-terminal CKKK-PEG4 linker and C-terminal pentafluoropropylamine reporter (peptide-PFC) (not fully specified).
T4 chain: CKKKXXXX

B1: neutrophil elastase (NE) (protein)
chain: IVGGRRARPHAWPFMVSLQLRGGHFCGATLIAPNFVMSAAHCVANVNVRAVRVVLGAHNLSRREPTRQVFAVQRIFENGYDPVNLLNDIVILQLNGSATINANVQVAQLPAQGRRLGNGVQCLAMGWGLLGRNRGIASVLQELNVTVVTSLCRRSNVCTLVRGRQAGVCFGDSGSPLVCNGLIHGIASFVRGGCASGLYPDAFAPVAQFVNWIDSIIQ
With B1, the “kcat/Km (Michaelis-Menten kinetics of substrate cleavage)” value in data set [1] and in data set [2] was “kcat/Km values were on the order of 10^5 M^-1s-^-1” each time. The “PFC release from the peptide substrate (real-time vapor analysis mass spectrometry)” value in data set [3] and in data set [4] was “cleaved specifically by NE” each time.
